The RNAGym collection of RNA variant scans (doi:10.7554/elife.80360)

B1: CPEB3 Ribozyme (parent)
chain: GGGGGCCACAGCAGAAGCGUUCACGUCGCGGCCCCUGUCAGAUUCUGGUGAAUCUGCGAAUUCUGCUGU

Variants of: B1
Test: self-cleavage, relative activity (ratio to wild type); higher = more cleavage; co-transcriptional
GGGGGCCACAGCAGAAGCGUUCACGUCGCGGCCCCUGUCAGAUUCUGGUGAAUCUGCGAAUUCUUCUGA [G65U U69A] showed a self-cleavage of 0.835.
In the case of GGGGGCCACAGCAGAAGCGUUCACGUCGCGGCCCCUGUCAGAUUCUGGUGAAUCUGCGAAUUCUGGUGU [C66G], the self-cleavage is reported as 0.937.
For GGGGGCCACAGCAGAAGCGUUCACGUCGCGGCCCCUGUCAGAUUCUGGUGAAUCUGCGAAUUCUGAUGU [C66A], the self-cleavage was 0.911.
Variant GGGGGCCACAGCAGAAGCGUUCACGUCGCGGCCCCUGUCAGAUUCUGGUGAAUCUGCGAAUUCUGUUGU [C66U] has a self-cleavage of 0.99.
Variant GGGGGCCACAGCAGAAGCGUUCACGUCGCGGCCCCUGUCAGAUUCUGGUGAAUCUGCGAAUUCUGAAGU [C66A U67A] has a self-cleavage of 0.977.
Variant GGGGGCCACAGCAGAAGCGUUCACGUCGCGGCCCCUGUCAGAUUCUGGUGAAUCUGCGAAUUCUGAGGU [C66A U67G] has a self-cleavage of 0.891.
Variant GGGGGCCACAGCAGAAGCGUUCACGUCGCGGCCCCUGUCAGAUUCUGGUGAAUCUGCGAAUUCUGCGCU [U67G G68C] has a self-cleavage of 1.07.
For GGGGGCCACAGCAGAAGCGUUCACGUCGCGGCCCCUGUCAGAUUCUGGUGAAUCUGCGAAUUCUGCGUU [U67G G68U], the self-cleavage was 1.1.
GGGGGCCACAGCAGAAGCGUUCACGUCGCGGCCCCUGUCAGAUUCUGGUGAAUCUGCGAAUUCUGUUCU [C66U G68C] showed a self-cleavage of 0.991.
GGGGGCCACAGCAGAAGCGUUCACGUCGCGGCCCCUGUCAGAUUCUGGUGAAUCUGCGAAUUCUGCCAU [U67C G68A] showed a self-cleavage of 0.983.
GGGGGCCACAGCAGAAGCGUUCACGUCGCGGCCCCUGUCAGAUUCUGGUGAAUCUGCGAAUUCUGCCUU [U67C G68U] showed a self-cleavage of 1.06.
In the case of GGGGGCCACAGCAGAAGCGUUCACGUCGCGGCCCCUGUCAGAUUCUGGUGAAUCUGCGAAUUCUGUUGA [C66U U69A], the self-cleavage is reported as 1.03.
GGGGGCCACAGCAGAAGCGUUCACGUCGCGGCCCCUGUCAGAUUCUGGUGAAUCUGCGAAUUCUGUUGC [C66U U69C] showed a self-cleavage of 1.06.
For GGGGGCCACAGCAGAAGCGUUCACGUCGCGGCCCCUGUCAGAUUCUGGUGAAUCUGCGAAUUCUACGGU [G65A U67G], the self-cleavage was 0.887.
GGGGGCCACAGCAGAAGCGUUCACGUCGCGGCCCCUGUCAGAUUCUGGUGAAUCUGCGAAUUCUACAGU [G65A U67A] gave a self-cleavage of 0.793.
GGGGGCCACAGCAGAAGCGUUCACGUCGCGGCCCCUGUCAGAUUCUGGUGAAUCUGCGAAUUCUACCGU [G65A U67C] gave a self-cleavage of 0.844.
For GGGGGCCACAGCAGAAGCGUUCACGUCGCGGCCCCUGUCAGAUUCUGGUGAAUCUGCGAAUUCUGGUAU [C66G G68A], the self-cleavage was 0.96.
GGGGGCCACAGCAGAAGCGUUCACGUCGCGGCCCCUGUCAGAUUCUGGUGAAUCUGCGAAUUCUGAUUU [C66A G68U] showed a self-cleavage of 0.799.
GGGGGCCACAGCAGAAGCGUUCACGUCGCGGCCCCUGUCAGAUUCUGGUGAAUCUGCGAAUUCUGAUCU [C66A G68C] gave a self-cleavage of 0.84.
In the case of GGGGGCCACAGCAGAAGCGUUCACGUCGCGGCCCCUGUCAGAUUCUGGUGAAUCUGCGAAUUCUGCGGC [U67G U69C], the self-cleavage is reported as 1.1.
Work on GGGGGCCACAGCAGAAGCGUUCACGUCGCGGCCCCUGUCAGAUUCUGGUGAAUCUGCGAAUUCUGCGGA [U67G U69A] yielded a self-cleavage of 1.1.
In the case of GGGGGCCACAGCAGAAGCGUUCACGUCGCGGCCCCUGUCAGAUUCUGGUGAAUCUGCGAAUUCUCCUAU [G65C G68A], the self-cleavage is reported as 0.678.
For GGGGGCCACAGCAGAAGCGUUCACGUCGCGGCCCCUGUCAGAUUCUGGUGAAUCUGCGAAUUCUACUGG [G65A U69G], the self-cleavage was 0.947.
Work on GGGGGCCACAGCAGAAGCGUUCACGUCGCGGCCCCUGUCAGAUUCUGGUGAAUCUGCGAAUUCUGCUCG [G68C U69G] yielded a self-cleavage of 1.11.
GGGGGCCACAGCAGAAGCGUUCACGUCGCGGCCCCUGUCAGAUUCUGGUGAAUCUGCGAAUUCUGCUCA [G68C U69A] gave a self-cleavage of 1.06.
Variant GGGGGCCACAGCAGAAGCGUUCACGUCGCGGCCCCUGUCAGAUUCUGGUGAAUCUGCGAAUUCUGUGGU [C66U U67G] has a self-cleavage of 1.
Work on GGGGGCCACAGCAGAAGCGUUCACGUCGCGGCCCCUGUCAGAUUCUGGUGAAUCUGCGAAUUCUGUCGU [C66U U67C] yielded a self-cleavage of 0.956.
In the case of GGGGGCCACAGCAGAAGCGUUCACGUCGCGGCCCCUGUCAGAUUCUGGUGAAUCUGCGAAUUCUUUUGU [G65U C66U], the self-cleavage is reported as 0.55.
Variant GGGGGCCACAGCAGAAGCGUUCACGUCGCGGCCCCUGUCAGAUUCUGGUGAAUCUGCGAAUUCUUGUGU [G65U C66G] has a self-cleavage of 0.814.
GGGGGCCACAGCAGAAGCGUUCACGUCGCGGCCCCUGUCAGAUUCUGGUGAAUCUGCGAAUUCUUAUGU [G65U C66A] gave a self-cleavage of 0.669.
GGGGGCCACAGCAGAAGCGUUCACGUCGCGGCCCCUGUCAGAUUCUGGUGAAUCUGCGAAUUCUCUUGU [G65C C66U] gave a self-cleavage of 0.816.
Work on GGGGGCCACAGCAGAAGCGUUCACGUCGCGGCCCCUGUCAGAUUCUGGUGAAUCUGCGAAUUCUCGUGU [G65C C66G] yielded a self-cleavage of 0.65.
For GGGGGCCACAGCAGAAGCGUUCACGUCGCGGCCCCUGUCAGAUUCUGGUGAAUCUGCGAAUUCUCCUGA [G65C U69A], the self-cleavage was 0.828.
For GGGGGCCACAGCAGAAGCGUUCACGUCGCGGCCCCUGUCAGAUUCUGGUGAAUCUGCGAAUUCUGCACU [U67A G68C], the self-cleavage was 0.955.
GGGGGCCACAGCAGAAGCGUUCACGUCGCGGCCCCUGUCAGAUUCUGGUGAAUCUGCGAAUUCUGCAUU [U67A G68U] showed a self-cleavage of 1.01.
GGGGGCCACAGCAGAAGCGUUCACGUCGCGGCCCCUGUCAGAUUCUGGUGAAUCUGCGAAUUCUGCAAU [U67A G68A] showed a self-cleavage of 1.07.
GGGGGCCACAGCAGAAGCGUUCACGUCGCGGCCCCUGUCAGAUUCUGGUGAAUCUGCGAAUUCUCCUGU [G65C] showed a self-cleavage of 0.758.
In the case of GGGGGCCACAGCAGAAGCGUUCACGUCGCGGCCCCUGUCAGAUUCUGGUGAAUCUGCGAAUUCUACUGU [G65A], the self-cleavage is reported as 0.954.
GGGGGCCACAGCAGAAGCGUUCACGUCGCGGCCCCUGUCAGAUUCUGGUGAAUCUGCGAAUUCUUCUGU [G65U] gave a self-cleavage of 0.877.
With GGGGGCCACAGCAGAAGCGUUCACGUCGCGGCCCCUGUCAGAUUCUGGUGAAUCUGCGAAUUCUGGAGU [C66G U67A] the self-cleavage was 0.937.
In the case of GGGGGCCACAGCAGAAGCGUUCACGUCGCGGCCCCUGUCAGAUUCUGGUGAAUCUGCGAAUUCUGGGGU [C66G U67G], the self-cleavage is reported as 0.909.
